Assays:
SKOV3-Luc cells = assay: SKOV3 xenograft in NSG mice; settings: for tumor inhibition / protection, SKOV3 xenograft: 1 × 10^6 SKOV3-Luc s.c., a week later 3 × 10^6 SAR-T i.v.
RAJI-CD19-KO cells = assay: JNG assay, co-culture with RAJI-CD19-KO cells; assay type: cell-based; settings: co-culture with Raji-CD19-KO
Method in brief: (§1)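 Jurkat NFAT-GFP (JNG) cells stably transduced with SARs by lentivirus, with drug selection where the construct carried a resistance gene, then co-cultured with target cells at E:T ~1:2 for ~4–18 h. % GFP-positive cells measured by FACS against parental JNG; +/- to 5+ correspond to ~5–50% GFP-positive.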

RS;411 = assay: JNG assay, co-culture with RS;411 cells; assay type: cell-based; settings: co-culture with RS411
Method in brief: as §1

Nalm6 cells = assay: JNG assay, co-culture with Nalm6 cells; assay type: cell-based; settings: co-culture with Nalm6
Method in brief: (§2)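 Drug-selected populations of SAR-expressing Jurkat-NFAT-GFP cells meet target cells (about 1:2 E:T) for roughly 4–18 h. Flow cytometry gives % GFP+ cells, graded +/- to 5+ (≈5% to ≈50%) relative to the parental control.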

L363 cells = assay: JNG assay, co-culture with L363 cells; assay type: cell-based; settings: co-culture with L363
Method in brief: as §1

LNCaP cells = assay: JNG assay, co-culture with LNCaP cells; assay type: cell-based
Method in brief: as §2

RAJI cells = assay: JNG assay, co-culture with RAJI cells; assay type: cell-based; settings: JNG cells expressing construct, co-culture with Raji
Method in brief: as §1

B1: 10315 (protein)
chain: MALPVTALLLPLALLLHAARPDIQMTQSPSSLSASVGDRVTITCKSSQSLLYSSNQKNYLAWFQQKPGKAPKLLIYWASTRESGVPSRFSGSGSGTDFTLTISSLQPEDFATYFCHQYLSSYTFGQGTKVEIKRLEDLKNVFPPEVAVFEPSEAEISHTQKATLVCLATGFYPDHVELSWWVNGKEVHSGVCTDPQPLKEQPALNDSRYCLSSRLRVSATFWQNPRNHFRCQVQFYGLSENDEWTQDRAKPVTQIVSAEAWGRADCGFTSESYQQGVLSATILYEILLGKATLYAVLVSALVLMAMVKRKDSRGRAKRSGSGATNFSLLKQAGDVEENPGPTSMDWIWRILFLVGAATGAHSFEEVQLVESGGGLVQPGGSLRLSCAASGYTFTSYWLHWVRQAPGKGLEWVGYIRPSTGYTEYNQKFKDRFTISADTSKNTAYLQMNSLRAEDTAVYYCARSRWLLDYWGQGTLVTVSSTRIQNPDPAVYQLRDSKSSDKSVCLFTDFDSQTNVSQSKDSDVYITDKCVLDMRSMDFKSNSAVAWSNKSDFACANAFNNSIIPEDTFFPSPESSCDVKLVEKSFETDTNLNFQNLSVIGFRILLLKVAGFNLLMTLRLWSS
modifications: Synthetic Polynucloetide
For B1, the “tumor inhibition / protection, SKOV3 xenograft” value (shortened to “tumor inhibition / protection”) (SKOV3-Luc cells) was “tumor inhibition” and the “survival, SKOV3 xenograft” value (SKOV3-Luc cells; mouse, in vivo) was “improvement in survival”.

B2: 22178 (protein)
chain: MALPVTALLLPLALLLHAARPEVQLVESGGGVVQPGRSLRLSCAASGFSFSGYGMHWVRQAPGKGLEWVAYISYDGSNKYYADSVKGRFTISRDNSKNTLYLQMNSLRAEDTAVYYCAKDPAWGLRLGESSSYDFDIWGQGTMVTVSSGTGGGGSGGGGSGGGGSEFDIQMTQSPSSLSASVGDRVTITCKASDHINNWLAWYQQKPGQAPKLLIYGATTLETGVPSRFSGSGSGTDYTLTISSLQPEDFATYYCQQSWNTPWTFGQGTKLEIKRLEDLKNVFPPEVAVFEPSKAEIAHTQKATLVCLATGFYPDHVELSWWVNGKEVHSGVCTDPQPLKEQPALNDSRYCLSSRLRVSATFWQNPRNHFRCQVQFYGLSENDEWTQDRAKPVTQIVSAEAWGRADCGITSASYHQGVLSATILYEILLGKATLYAVLVSALVLMAMVKRKDSRGRAKRSGSGATNFSLLKQAGDVEENPGPTSATMDWIWRILFLVGAATGAHSGPQVQLQESGGGLAQAGGSLRLSCAASGRTFSMGWFRQAPGKEREFVAAITYSGGSPYYASSVRGRFTISRDNAKNTVYLQMNSLKPEDTAVYYCAANPTYGSDWNAENWGQGTQVTVSSGSGGGGSGGGGSGGGGSFEQVQLQQPGAELVKPGASVKMSCKASGYAFSSYWINWMKQKPGQGLEWIGQIYPGDGDTNYNGKFKGRATLTADTSSSTAYMQLSSLTSEDSAVYFCARSITTVVGCAMDYWGQGTSVTVSSTRIQNPDPAVYQLRDSKSSDKSVCLFTDFDSQTNVSQSKDSDVYITDKCVLDMRSMDFKSNSAVAWSNKSDFACANAFNNSIIPEDTFFPSSDVPCDVKLVEKSFETDTNLNFQNLSVIGFRILLLKVAGFNLLMTLRLWSSRAKRSGSGVKQTLNFDLLKLAGDVESNPGPSRGHMTEYKPTVRLATRDDVPRAVRTLAAAFADYPATRHTVDPDRHIERVTELQELFLTRVGLDIGKVWVADDGAAVAVWTTPESVEAGAVFAEIGPRMAELSGSRLAAQQQMEGLLAPHRPKEPAWFLATVGVSPDHQGKGLGSAVVLPGVEAAERAGVPAFLETSAPRNLPFYERLGFTVTADVEVPEGPRTWCMTRKPGA
With B2 the “NFAT-GFP ASSAY: Raji-CD19-KO” value (RAJI-CD19-KO cells) was 5+ (refer to approximately 5%, 10%, 20%, 30%, 40% and 50% GFP positive cells), the “NFAT-GFP ASSAY: RS411” value (RS;411) was “+ (refer to approximately 5%, 10%, 20%, 30%, 40% and 50% GFP positive cells)” and the “NFAT-GFP ASSAY: Nalm6” value (Nalm6 cells) was 5+ (refer to approximately 5%, 10%, 20%, 30%, 40% and 50% GFP positive cells). For the same molecule, the “NFAT-GFP ASSAY: L363” value (L363 cells) was “+/- (refer to approximately 5%, 10%, 20%, 30%, 40% and 50% GFP positive cells)” and the “NFAT-GFP ASSAY: LNCaP” value (LNCaP cells; co-culture with LNCaP) was 5+ (refer to approximately 5%, 10%, 20%, 30%, 40% and 50% GFP positive cells).

B3: 22287 (protein)
chain: MALPVTALLLPLALLLHAARPACEVQLLESGGGLIQPGGSLRLSCAASGFTFSSHAMTWVRQAPGKGLEWVSAISGSGDYTHYADSVKGRFTISRDNSKNTVYLQMNSLRAEDSAVYYCAKDEDGGSLLGHRGQGTLVTVSSGTGGGGSGGGGSGGGGSEFDIQMTQSPSSLSASVGDRVTITCKASDHINNWLAWYQQKPGQAPKLLIYGATTLETGVPSRFSGSGSGTDYTLTISSLQPEDFATYYCQQSWNTPWTFGQGTKLEIKRLEGQPKANPTVTLFPPSSEELQANKATLVCLISDFYPGAVTVAWKADGSPVKAGVETTKPSKQSNNKYAASSYLSLTPEQWKSHRSYSCQVTHEGSTVEKTVAPTECSGRADCGFTSESYQQGVLSATILYEILLGKATLYAVLVSALVLMAMVKRKDSRGRAKRSGSGATNFSLLKQAGDVEENPGPTSTMDWIWRILFLVGAATGAHSLFNQEVQIPLTESYCGPCPKNWICYKNNCYQFFDESKNWYESQASCMSQNASLLKVYSKEDQDLLKLVKSAHWMGLVHIPTNGSWQWEDGSILSPNLLTIIEMQKGDCALYASSFKGYIENCSTPNTYICMQRTVSGGGGSGGGGSGGGGDLFNQEVQIPLTESYCGPCPKNWICYKNNCYQFFDESKNWYESQASCMSQNASLLKVYSKEDQDLLKLVKSAHWMGLVHIPTNGSWQWEDGSILSPNLLTIIEMQKGDCALYASSFKGYIENCSTPNTYICMQRTVGSGGGGSGGGGSGGGGSFEQVQLQQPGAELVKPGASVKMSCKASGYAFSSYWINWMKQKPGQGLEWIGQIYPGDGDTNYNGKFKGRATLTADTSSSTAYMQLSSLTSEDSAVYFCARSITTVVGCAMDYWGQGTSVTVSSTRASTKGPSVFPLAPSSKSTSGGTAALGCLVKDYFPEPVTVSWNSGALTSGVHTFPAVLQSSGLYSLSSVVTVPSSSLGTQTYICNVNHKPSNTKVDKRVEPKSCIPEDTFFPSPESSCDVKLVEKSFETDTNLNFQNLSVIGFRILLLKVAGFNLLMTLRLWSSRAKRSGSGVKQTLNFDLLKLAGDVESNPGPSRGHMTEYKPTVRLATRDDVPRAVRTLAAAFADYPATRHTVDPDRHIERVTELQELFLTRVGLDIGKVWVADDGAAVAVWTTPESVEAGAVFAEIGPRMAELSGSRLAAQQQMEGLLAPHRPKEPAWFLATVGVSPDHQGKGLGSAVVLPGVEAAERAGVPAFLETSAPRNLPFYERLGFTVTADVEVPEGPRTWCMTRKPGA
B3 was tested, and the “NFAT-GFP ASSAY: L363” value (L363 cells) was “+/- (refer to approximately 5%, 10%, 20%, 30%, 40% and 50% GFP positive cells)”, the “NFAT-GFP ASSAY: Raji” value (RAJI cells) was 3+ (refer to approximately 5%, 10%, 20%, 30%, 40% and 50% GFP positive cells) and the “NFAT-GFP ASSAY: LNCaP with PSMA-USC76-chVH-G4S-ULBP2-S3” value (LNCaP cells; LNCaP in presence of SAR adaptor PSMA-USC76-chVH-G4S-ULBP2-S3) was “+ (refer to approximately 5%, 10%, 20%, 30%, 40% and 50% GFP positive cells)”.

B4: 10518 (protein)
chain: MALPVTALLLPLALLLHAARPEVQLVESGGGLVQPGGSLRLSCAASGYTFSDYFMSWVRQAPGKGLEWVATISNGGTYTYYPDSVKGRFTISRDNSKNTLYLQMNSLRAEDTAVYYCARFDGYIFDYWGQGTLVTVSSGGGGSGGGGSGGGGSDIQMTQSPSSLSASVGDRVTITCRASQDISNYLNWYQQKPGKAPKLLIYYTSRLHSGVPSRFSGSGSGTDFTLTISSLQPEDFATYYCQQGNTLPYTFGQGTKVEIKRTREQKLISEEDLAKPTTTPAPRPPTPAPTIASQPLSLRPEACRPAAGGAVHTRGLDFACDIYIWAPLAGTCGVLLLSLVITLYCKRGRKKLLYIFKQPFMRPVQTTQEEDGCSCRFPEEEEGGCELRVKFSRSADAPAYQQGQNQLYNELNLGRREEYDVLDKRRGRDPEMGGKPRRKNPQEGLYNELQKDKMAEAYSEIGMKGERRRGKGHDGLYQGLSTATKDTYDALHMQALPPR
modifications: Synthetic Polynucloetide
For B4, the “tumor inhibition / protection” value (SKOV3-Luc cells) was “weak protection”.

B5: 10656 (protein)
chain: MALPVTALLLPLALLLHAARPEVQLVESGGGLVQPGGSLRLSCAASGFTFSDYFMSWVRQAPGKGLEWVATISNGGTYTYYPDSVKGRFTISRDNSKNTLYLQMNSLRAEDTAVYYCARFDGYIFDYWGQGTLVTVSSGGGGSGGGGSGGGGSDIQMTQSPSSLSASVGDRVTITCRASQDISNYLNWYQQKPGKAPKLLIYYTSRLHSGVPSRFSGSGSGTDFTLTISSLQPEDFATYYCQQGNTLPWTFGQGTKVEIKRTREQKLISEEDLAKPTTTPAPRPPTPAPTIASQPLSLRPEACRPAAGGAVHTRGLDFACDIYIWAPLAGTCGVLLLSLVITLYCKRGRKKLLYIFKQPFMRPVQTTQEEDGCSCRFPEEEEGGCELRVKFSRSADAPAYQQGQNQLYNELNLGRREEYDVLDKRRGRDPEMGGKPRRKNPQEGLYNELQKDKMAEAYSEIGMKGERRRGKGHDGLYQGLSTATKDTYDALHMQALPPR
modifications: Synthetic Polynucloetide
B5 was tested, and the “tumor inhibition / protection” value (SKOV3-Luc cells) was “weak protection”.

B6: 10587 (protein)
chain: MALPVTALLLPLALLLHAARPEVQLVESGGGLVQPGGSLRLSCAASGFTFSDYFMSWVRQAPGKGLEWVATISNGGTYTYYPDSVKGRFTISRDNSKNTLYLQMNSLRAEDTAVYYCARFDGYIFDYWGQGTLVTVSSGGGGSGGGGSGGGGSDIQMTQSPSSLSASVGDRVTITCRASQDISSYLNWYQQKPGKAPKLLIYYTSRLHSGVPSRFSGSGSGTDFTLTISSLQPEDFATYYCQQGNTLPYTFGQGTKVEIKRTREQKLISEEDLAKPTTTPAPRPPTPAPTIASQPLSLRPEACRPAAGGAVHTRGLDFACDIYIWAPLAGTCGVLLLSLVITLYCKRGRKKLLYIFKQPFMRPVQTTQEEDGCSCRFPEEEEGGCELRVKFSRSADAPAYQQGQNQLYNELNLGRREEYDVLDKRRGRDPEMGGKPRRKNPQEGLYNELQKDKMAEAYSEIGMKGERRRGKGHDGLYQGLSTATKDTYDALHMQALPPR
modifications: Synthetic Polynucloetide
In the case of B6, the “tumor inhibition / protection” value (SKOV3-Luc cells) is reported as “weak protection”.
